Patent publication US9957297B2, “Template-fixed peptidomimetics as inhibitors of FPR1” (POLYPHOR AG, priority 2011, dated 2018)
Bridges are numbered along the chain shown (N, C = ends). Primed or numbered codes have the meaning given here. [ ]: non-standard residue; d: D form. Phe(4-CF3) = N[C@@H](Cc1ccc(C(F)(F)F)cc1)C(=O)O; dPro(4S-NH2) = N[C@@H]1CN[C@@H](C(=O)O)C1; dTic = O=C(O)[C@H]1Cc2ccccc2CN1; dPip′ = not defined here; Dab = NCC[C@H](N)C(=O)O

T1: Formyl-Peptide Receptor 1 (UniProt P21462 1-350, limits assumed)
T1 sequence (looked up): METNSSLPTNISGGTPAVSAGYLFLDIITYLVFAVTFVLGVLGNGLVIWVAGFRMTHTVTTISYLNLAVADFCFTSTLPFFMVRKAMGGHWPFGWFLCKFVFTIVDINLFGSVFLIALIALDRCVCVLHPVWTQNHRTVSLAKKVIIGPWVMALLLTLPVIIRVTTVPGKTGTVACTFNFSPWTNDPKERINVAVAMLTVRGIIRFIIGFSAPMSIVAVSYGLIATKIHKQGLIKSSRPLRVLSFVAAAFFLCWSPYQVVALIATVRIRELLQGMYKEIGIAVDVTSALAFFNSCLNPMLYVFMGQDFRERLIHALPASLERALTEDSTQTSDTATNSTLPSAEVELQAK


Target: T1, Formyl-Peptide Receptor 1
Test: cell-based or functional assay

| Binder | β-Arrestin IC50 |
| --- | --- |
| cyclo(YHKC[Phe(4-CF3)]G[dP]WTICYEK[dP]P) (disulfide 4-11; SMILES CC[C@H](C)[C@@H]1NC(=O)[C@H]([C@@H](C)O)NC(=O)[C@H](Cc2c[nH]c3ccccc23)NC(=O)[C@H]2CCCN2C(=O)CNC(=O)[C@H](Cc2ccc(C(F)(F)F)cc2)NC(=O)[C@@H]2CSSC[C@H](NC1=O)C(=O)N[C@@H](Cc1ccc(O)cc1)C(=O)N[C@@H](CCC(=O)O)C(=O)N[C@@H](CCCCN)C(=O)N1CCC[C@@H]1C(=O)N1CCC[C@H]1C(=O)N[C@@H](Cc1ccc(O)cc1)C(=O)N[C@@H](Cc1c[nH]cn1)C(=O)N[C@@H](CCCCN)C(=O)N2) [cyclo(-Tyr-His-Lys-Cys-Phe(4CF3)-Gly-^DPro-Trp-Thr-Ile-Cys-Tyr-Glu-Lys-^DPro-Pro-)] | 172 nM |
| cyclo(YHKCHG[dP]WTICYEK[dPro(4S-NH2)]P) (disulfide 4-11) [cyclo(-Tyr-His-Lys-Cys-His-Gly-^DPro-Trp-Thr-Ile-Cys-Tyr-Glu-Lys-^DPro((4S)NH2)-Pro-)] | 41 nM |
| cyclo(YHKCHG[dP]WTICYEE[dP]P) (disulfide 4-11; SMILES CC[C@H](C)[C@@H]1NC(=O)[C@H]([C@@H](C)O)NC(=O)[C@H](Cc2c[nH]c3ccccc23)NC(=O)[C@H]2CCCN2C(=O)CNC(=O)[C@H](Cc2c[nH]cn2)NC(=O)[C@@H]2CSSC[C@H](NC1=O)C(=O)N[C@@H](Cc1ccc(O)cc1)C(=O)N[C@@H](CCC(=O)O)C(=O)N[C@@H](CCC(=O)O)C(=O)N1CCC[C@@H]1C(=O)N1CCC[C@H]1C(=O)N[C@@H](Cc1ccc(O)cc1)C(=O)N[C@@H](Cc1c[nH]cn1)C(=O)N[C@@H](CCCCN)C(=O)N2) [cyclo(-Tyr-His-Lys-Cys-His-Gly-^DPro-Trp-Thr-Ile-Cys-Tyr-Glu-Glu-^DPro-Pro-)] | 57 nM |
| cyclo(YHKCHG[dP]WTICYEK[dA]P) (disulfide 4-11; SMILES CC[C@H](C)[C@@H]1NC(=O)[C@H]([C@@H](C)O)NC(=O)[C@H](Cc2c[nH]c3ccccc23)NC(=O)[C@H]2CCCN2C(=O)CNC(=O)[C@H](Cc2c[nH]cn2)NC(=O)[C@@H]2CSSC[C@H](NC1=O)C(=O)N[C@@H](Cc1ccc(O)cc1)C(=O)N[C@@H](CCC(=O)O)C(=O)N[C@@H](CCCCN)C(=O)N[C@H](C)C(=O)N1CCC[C@H]1C(=O)N[C@@H](Cc1ccc(O)cc1)C(=O)N[C@@H](Cc1c[nH]cn1)C(=O)N[C@@H](CCCCN)C(=O)N2) [cyclo(-Tyr-His-Lys-Cys-His-Gly-^DPro-Trp-Thr-Ile-Cys-Tyr-Glu-Lys-^DAla-Pro-)] | 65 nM |
| cyclo(YHKCHG[dP]WTICYEK[dK]E) (disulfide 4-11; SMILES CC[C@H](C)[C@@H]1NC(=O)[C@H]([C@@H](C)O)NC(=O)[C@H](Cc2c[nH]c3ccccc23)NC(=O)[C@H]2CCCN2C(=O)CNC(=O)[C@H](Cc2c[nH]cn2)NC(=O)[C@@H]2CSSC[C@H](NC1=O)C(=O)N[C@@H](Cc1ccc(O)cc1)C(=O)N[C@@H](CCC(=O)O)C(=O)N[C@@H](CCCCN)C(=O)N[C@H](CCCCN)C(=O)N[C@@H](CCC(=O)O)C(=O)N[C@@H](Cc1ccc(O)cc1)C(=O)N[C@@H](Cc1c[nH]cn1)C(=O)N[C@@H](CCCCN)C(=O)N2) [cyclo(-Tyr-His-Lys-Cys-His-Gly-^DPro-Trp-Thr-Ile-Cys-Tyr-Glu-Lys-^DLys-Glu-)] | 124 nM |
| cyclo(YHKCHG[dP]WTICYEK[dTic]P) (disulfide 4-11; SMILES CC[C@H](C)[C@@H]1NC(=O)[C@H]([C@@H](C)O)NC(=O)[C@H](Cc2c[nH]c3ccccc23)NC(=O)[C@H]2CCCN2C(=O)CNC(=O)[C@H](Cc2c[nH]cn2)NC(=O)[C@@H]2CSSC[C@H](NC1=O)C(=O)N[C@@H](Cc1ccc(O)cc1)C(=O)N[C@@H](CCC(=O)O)C(=O)N[C@@H](CCCCN)C(=O)N1Cc3ccccc3C[C@@H]1C(=O)N1CCC[C@H]1C(=O)N[C@@H](Cc1ccc(O)cc1)C(=O)N[C@@H](Cc1c[nH]cn1)C(=O)N[C@@H](CCCCN)C(=O)N2) [cyclo(-Tyr-His-Lys-Cys-His-Gly-^DPro-Trp-Thr-Ile-Cys-Tyr-Glu-Lys-^DTic-Pro-)] | 56 nM |
| cyclo(YHKCWG[dP]WTICYEK[dK]P) (disulfide 4-11; SMILES CC[C@H](C)[C@@H]1NC(=O)[C@H]([C@@H](C)O)NC(=O)[C@H](Cc2c[nH]c3ccccc23)NC(=O)[C@H]2CCCN2C(=O)CNC(=O)[C@H](Cc2c[nH]c3ccccc23)NC(=O)[C@@H]2CSSC[C@H](NC1=O)C(=O)N[C@@H](Cc1ccc(O)cc1)C(=O)N[C@@H](CCC(=O)O)C(=O)N[C@@H](CCCCN)C(=O)N[C@H](CCCCN)C(=O)N1CCC[C@H]1C(=O)N[C@@H](Cc1ccc(O)cc1)C(=O)N[C@@H](Cc1c[nH]cn1)C(=O)N[C@@H](CCCCN)C(=O)N2) [cyclo(-Tyr-His-Lys-Cys-Trp-Gly-^DPro-Trp-Thr-Ile-Cys-Tyr-Glu-Lys-^DLys-Pro-)] | 126 nM |
| cyclo(YHKCYG[dP]WTICYEK[dP]P) (disulfide 4-11; SMILES CC[C@H](C)[C@@H]1NC(=O)[C@H]([C@@H](C)O)NC(=O)[C@H](Cc2c[nH]c3ccccc23)NC(=O)[C@H]2CCCN2C(=O)CNC(=O)[C@H](Cc2ccc(O)cc2)NC(=O)[C@@H]2CSSC[C@H](NC1=O)C(=O)N[C@@H](Cc1ccc(O)cc1)C(=O)N[C@@H](CCC(=O)O)C(=O)N[C@@H](CCCCN)C(=O)N1CCC[C@@H]1C(=O)N1CCC[C@H]1C(=O)N[C@@H](Cc1ccc(O)cc1)C(=O)N[C@@H](Cc1c[nH]cn1)C(=O)N[C@@H](CCCCN)C(=O)N2) [cyclo(-Tyr-His-Lys-Cys-Tyr-Gly-^DPro-Trp-Thr-Ile-Cys-Tyr-Glu-Lys-^DPro-Pro-)] | 22 nM |
| cyclo(YHKCHG[dA]WTICYEK[dP]E) (disulfide 4-11; SMILES CC[C@H](C)[C@@H]1NC(=O)[C@H]([C@@H](C)O)NC(=O)[C@H](Cc2c[nH]c3ccccc23)NC(=O)[C@@H](C)NC(=O)CNC(=O)[C@H](Cc2c[nH]cn2)NC(=O)[C@@H]2CSSC[C@H](NC1=O)C(=O)N[C@@H](Cc1ccc(O)cc1)C(=O)N[C@@H](CCC(=O)O)C(=O)N[C@@H](CCCCN)C(=O)N1CCC[C@@H]1C(=O)N[C@@H](CCC(=O)O)C(=O)N[C@@H](Cc1ccc(O)cc1)C(=O)N[C@@H](Cc1c[nH]cn1)C(=O)N[C@@H](CCCCN)C(=O)N2) [cyclo(-Tyr-His-Lys-Cys-His-Gly-^DAla-Trp-Thr-Ile-Cys-Tyr-Glu-Lys-^DPro-Glu-)] | 77 nM |
| cyclo(YHKCWG[dP]WTICYE[Dab][dP]P) (disulfide 4-11) [cyclo(-Tyr-His-Lys-Cys-Trp-Gly-^DPro-Trp-Thr-Ile-Cys-Tyr-Glu-Dab-^DPro-Pro-)] | 53 nM |
| cyclo(YHKCHG[dP]WTICYEW[dP]P) (disulfide 4-11; SMILES CC[C@H](C)[C@@H]1NC(=O)[C@H]([C@@H](C)O)NC(=O)[C@H](Cc2c[nH]c3ccccc23)NC(=O)[C@H]2CCCN2C(=O)CNC(=O)[C@H](Cc2c[nH]cn2)NC(=O)[C@@H]2CSSC[C@H](NC1=O)C(=O)N[C@@H](Cc1ccc(O)cc1)C(=O)N[C@@H](CCC(=O)O)C(=O)N[C@@H](Cc1c[nH]c3ccccc13)C(=O)N1CCC[C@@H]1C(=O)N1CCC[C@H]1C(=O)N[C@@H](Cc1ccc(O)cc1)C(=O)N[C@@H](Cc1c[nH]cn1)C(=O)N[C@@H](CCCCN)C(=O)N2) [cyclo(-Tyr-His-Lys-Cys-His-Gly-^DPro-Trp-Thr-Ile-Cys-Tyr-Glu-Trp-^DPro-Pro-)] | 16 nM |
| cyclo(YHKCHG[dP]WTICYEK[dPro((4S)OH)]P) (disulfide 4-11) [cyclo(-Tyr-His-Lys-Cys-His-Gly-^DPro-Trp-Thr-Ile-Cys-Tyr-Glu-Lys-^DPro((4S)OH)-Pro-)] | 39 nM |
| cyclo(YHKCHG[dP]WTICYEK[dPip′]P) (disulfide 4-11) [cyclo(-Tyr-His-Lys-Cys-His-Gly-^DPro-Trp-Thr-Ile-Cys-Tyr-Glu-Lys-^DPip-Pro-)] | 29 nM |
| cyclo(YHKCWG[dP]WTICYEK[dA]P) (disulfide 4-11; SMILES CC[C@H](C)[C@@H]1NC(=O)[C@H]([C@@H](C)O)NC(=O)[C@H](Cc2c[nH]c3ccccc23)NC(=O)[C@H]2CCCN2C(=O)CNC(=O)[C@H](Cc2c[nH]c3ccccc23)NC(=O)[C@@H]2CSSC[C@H](NC1=O)C(=O)N[C@@H](Cc1ccc(O)cc1)C(=O)N[C@@H](CCC(=O)O)C(=O)N[C@@H](CCCCN)C(=O)N[C@H](C)C(=O)N1CCC[C@H]1C(=O)N[C@@H](Cc1ccc(O)cc1)C(=O)N[C@@H](Cc1c[nH]cn1)C(=O)N[C@@H](CCCCN)C(=O)N2) [cyclo(-Tyr-His-Lys-Cys-Trp-Gly-^DPro-Trp-Thr-Ile-Cys-Tyr-Glu-Lys-^DAla-Pro-)] | 126 nM |
| cyclo(YHKCWG[dP]WTICYEK[dP]P) (disulfide 4-11; SMILES CC[C@H](C)[C@@H]1NC(=O)[C@H]([C@@H](C)O)NC(=O)[C@H](Cc2c[nH]c3ccccc23)NC(=O)[C@H]2CCCN2C(=O)CNC(=O)[C@H](Cc2c[nH]c3ccccc23)NC(=O)[C@@H]2CSSC[C@H](NC1=O)C(=O)N[C@@H](Cc1ccc(O)cc1)C(=O)N[C@@H](CCC(=O)O)C(=O)N[C@@H](CCCCN)C(=O)N1CCC[C@@H]1C(=O)N1CCC[C@H]1C(=O)N[C@@H](Cc1ccc(O)cc1)C(=O)N[C@@H](Cc1c[nH]cn1)C(=O)N[C@@H](CCCCN)C(=O)N2) [cyclo(-Tyr-His-Lys-Cys-Trp-Gly-^DPro-Trp-Thr-Ile-Cys-Tyr-Glu-Lys-^DPro-Pro-)] | 54 nM |
| cyclo(YHKCHG[dP]WTICYEK[dK]P) (disulfide 4-11; SMILES CC[C@H](C)[C@@H]1NC(=O)[C@H]([C@@H](C)O)NC(=O)[C@H](Cc2c[nH]c3ccccc23)NC(=O)[C@H]2CCCN2C(=O)CNC(=O)[C@H](Cc2c[nH]cn2)NC(=O)[C@@H]2CSSC[C@H](NC1=O)C(=O)N[C@@H](Cc1ccc(O)cc1)C(=O)N[C@@H](CCC(=O)O)C(=O)N[C@@H](CCCCN)C(=O)N[C@H](CCCCN)C(=O)N1CCC[C@H]1C(=O)N[C@@H](Cc1ccc(O)cc1)C(=O)N[C@@H](Cc1c[nH]cn1)C(=O)N[C@@H](CCCCN)C(=O)N2) [cyclo(-Tyr-His-Lys-Cys-His-Gly-^DPro-Trp-Thr-Ile-Cys-Tyr-Glu-Lys-^DLys-Pro-)] | 385 nM |
